# Several values for one entry are separate records, joined by “and”; a condition that tells them apart may be missing. Equal entries are not always repeated.
# Assays:
# [1] = Sodium fluorescein leakage into CSF after BCCAO (BBB integrity); format: in vivo, mouse; details: individual animals; for CSF/blood fluorescent: 60 min after injection
# Protocol: WT and Ager^−/− male mice (8 to 12-weeks-old and weighing 20–30 g) were used for the experiments. The animals were anaesthetised with 2.0% halothane and maintained with 0.5% halothane through a facemask. Brain ischaemia was induced via bilateral occlusion of the common carotid arteries (BCCAO) for 15 min using microvascular clips as described previously. Laser-Doppler flowmetry was used to measure cerebral cortical microperfusion (3 mm lateral to bregma). […] Rectal temperature was maintained at 36.5–37.5 °C by using a heat lamp and a blanket until the mice were completely alert. The control animals underwent a sham-operation that was identical with the exception of the occlusion. To quantify accumulative BBB leakages, 200 µl of sodium fluorescein (Sigma-Aldrich) at a concentration of 6 mg/ml in PBS was injected via the venous sinus of retro-orbital in the mice. […] Sixty minutes later, the CSF and blood were collected according to the protocol for sampling of CSF and blood from mice[80]. The fluorescence of CSF and serum were measured at 460 nm at an excitation wavelength of 355 nm by using a Fluoroscan Ascent FL luminometer (Labsystems. Wilmington, DE, USA). Results are presented as relative fluorescence units (CSF value/serum value) (%).
# human esRAGE = human esRAGE (Homo sapiens, UniProt Q15109); test: Plate competition assay of oxytocin-RAGE complex formation by RAGE ligands and RAGE domains; format: binding; details: esRAGE preincubated with ligand, added 30 min to wells with immobilised oxytocin, HRP-anti-RAGE, n = 3
# Sequence of human esRAGE (Q15109 23-347 isoform Q15109-3 limits assumed): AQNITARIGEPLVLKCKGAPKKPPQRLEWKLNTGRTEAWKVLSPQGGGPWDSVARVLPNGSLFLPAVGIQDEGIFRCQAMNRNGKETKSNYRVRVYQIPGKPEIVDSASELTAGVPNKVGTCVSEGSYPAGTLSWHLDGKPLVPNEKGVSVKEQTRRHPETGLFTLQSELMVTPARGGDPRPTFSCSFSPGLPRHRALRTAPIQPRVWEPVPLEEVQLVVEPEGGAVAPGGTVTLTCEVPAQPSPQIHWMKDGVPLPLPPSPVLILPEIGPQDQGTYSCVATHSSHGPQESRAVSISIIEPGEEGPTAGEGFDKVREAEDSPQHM
# Protocol: RAGE ligands were S100B (Sigma-Aldrich, St. Louis, MO, USA)[30], AGE-BSA (glyceraldehyde-derived AGE-BSA)[27],[32],[41], amyloid β 1-42 (Sigma-Aldrich), and high-mobility group box 1 (HMGB1, Sigma-Aldrich)[42].
# Supplementary Figure 3. (a–d) Plate competition assays. Preincubation mixtures of esRAGE (1 mg/ml) with indicated concentrations of S100B (a),AGE-BSA (AGE) (b), amyloid b (c),or high-mobility group box 1 (HMGB1) (d) were added into wells for 30 min on which […]
# The formation of oxytocin–RAGE complexes was detected with horseradish peroxidase (HRP)-conjugated anti-RAGE antibody (n = 3). All […]
# and C2 domains (30 mg/ml) were used with this system (n = 3). The formation of oxytocin– RAGE complexes was detected with horseradish peroxidase (HRP)-conjugated anti-RAGE antibody (n = 3). *P < 0.05. Allgraphs show mean ± SEM.
# (1 picture or pasted object on this page, not shown here)
# [2] = biological target: oxytocin receptor (high affinity form) (UniProt P30559); details: cited from earlier work
# Sequence of oxytocin receptor (high affinity form) (P30559 whole entry): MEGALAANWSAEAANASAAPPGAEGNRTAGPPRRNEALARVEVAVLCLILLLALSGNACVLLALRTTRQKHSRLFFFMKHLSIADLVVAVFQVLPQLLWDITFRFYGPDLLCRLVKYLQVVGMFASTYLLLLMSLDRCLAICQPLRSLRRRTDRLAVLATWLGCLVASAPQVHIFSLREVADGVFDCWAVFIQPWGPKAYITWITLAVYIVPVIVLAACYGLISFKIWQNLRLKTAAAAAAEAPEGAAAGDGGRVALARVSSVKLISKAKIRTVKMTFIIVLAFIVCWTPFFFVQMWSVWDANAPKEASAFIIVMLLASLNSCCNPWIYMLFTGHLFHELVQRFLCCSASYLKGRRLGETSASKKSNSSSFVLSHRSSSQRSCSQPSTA
# oxytocin receptor = oxytocin receptor (UniProt P30559); details: cited from earlier work
# Sequence of oxytocin receptor (P30559 whole entry): as above
# [3] = tested on: monkey brain capillary endothelial cells; test: In vitro blood-brain barrier (BBB) model (MBT-24H), transport between luminal and abluminal chambers, control or RAGE shRNA knockdown; details: 1.0 ng/ml in luminal chamber, 3 h, control vs RAGE knockdown, ELISA, n = 4
# Protocol: EC, monkey brain capillary endothelial cells; Peri, rat brain pericytes; Astro, rat astrocytes. […] The endothelial cells used in the upper chamber in a were treated with RAGE shRNA (knockdown, KD) or control (C or CNT) vectors to assess the effects of RAGE knockdown. […] Values are mean ± SEM
# For the in vitro BBB model (MBT-24H, PharmaCo-Cell Co., Nagasaki, Japan), rat brain pericytes (1.5 × 10^4 cells/cm^2) and rat astrocytes (1.5 × 10^4 cells/cm^2) were seeded on the bottom of the collagen-coated polyester membranes of Transwell inserts (Corning Life Sciences, MA, USA). After 16 h the cells firmly adherent, monkey brain vascular endothelial cells (1.5 × 10^5 cells/cm^2) were then seeded on the upper side of the inserts in 24-well culture plates. The in vitro BBB models were established within 4 days of seeding the cells according to the manufacturer’s instructions. Trans-endothelial electrical resistance (TEER), which primarily reflects the flux of sodium ions through the cell layers in the culture conditions, was measured with an epithelial-volt-ohm metre and an Endohm-6 chamber electrodes (World Precision Instruments, Sarasota, FL, USA). The TEERs of the coated, cell-free filters were subtracted from the measured TEER values of the models and shown as Ω cm^2. The apparent permeability constants (Papp) between luminal and abluminal chambers were calculated from the distribution ratios. Endothelial expression was silenced using RAGE shRNA and the pSilencer 3.0-H1 vector (Ambion, Austin, TX, USA)[41]. […]
# soluble RAGE = biological target: T1, soluble RAGE (Homo sapiens, UniProt Q15109); test: Gel permeation, anti-RAGE and esRAGE affinity chromatography of human serum with EIA and LC-MS/MS; format: binding; details: 50 ml human serum
# T1 construct: from tissue; host or cells: human serum
# T1 sequence (Q15109 23-347 isoform Q15109-3): as the sequence (Q15109 23-347 isoform Q15109-3 limits assumed) above
# Protocol: Polypeptides were separated using a Superdex 75 pg HiLoad 26/600 column (GE Healthcare Japan, Tokyo) eluted at 1.0 ml/min with 5 mM ammonium acetate pH 7.8. […] Anti-RAGE monoclonal antibody (1.0 mg) or purified esRAGE (0.5 mg) were coupled to NHS-activated HiTrap (GE Healthcare). Sera samples (50 ml) from healthy consenting adults were applied to the HiTrap-anti-RAGE column equilibrated with 50 mM Tris–HCl (pH 7.4) and 0.15 M NaCl. Alternatively, the low molecular weight (<3000, Amicon Ultracel3K) fraction of human serum (50 ml) was applied to the HiTrap-esRAGE column previously equilibrated with phosphate-buffered saline (PBS). After washing the bound proteins were eluted with 100 mM glycine-HCl buffer (pH 2.5) for HiTrap-anti-RAGE or 10 mM Tris–HCl (pH 7.4) and 2.0 M NaCl for HiTrap-esRAGE and the eluates were analysed by EIA or LC-MS/MS and Western blotting.
# (§1) High MW proteins in diluted mouse plasma were precipitated with 2% TCA; supernatants obtained after centrifugation were analysed by LC-MS/MS. Mouse CSF samples diluted 1:5 with PBS (25 μl) were analysed directly. […] The eluting 1.0 ml fractions (Fig. 1h) were analysed by LC-MS/MS. The 25 μl samples were separated using a ZORBAX 300SB-C8 column (2.1 × 150 mm, 5 μm; CA, USA) eluted with a linear gradient of 0.1% (v/v) formic acid and acetonitrile (0–30%) at 0.3 ml/min and 50 °C.
# Supplementary Figure 1. […]
# [4] = [13C,15N]oxytocin in CSF after subcutaneous injection, LC-MS/MS; format: in vivo, mouse
# Protocol: as §1
# [5] = biological target: human endogenous soluble RAGE (esRAGE), recombinant (human); test: SPR; human esRAGE amine-coupled to a CM5 chip (~5000 RU), oxytocin flowed over; BIAcore 2000; 10 mM HEPES pH 7.4, 0.15 M NaCl, 3 mM EDTA, 0.005% surfactant P-20; 25 °C, 20 μl/min; apparent KD
# Sequence of oxytocin (P01178 whole entry, looked up): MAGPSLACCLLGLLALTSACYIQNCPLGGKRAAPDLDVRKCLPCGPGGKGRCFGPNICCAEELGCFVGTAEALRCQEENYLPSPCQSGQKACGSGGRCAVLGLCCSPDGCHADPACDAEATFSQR
# Sequence of Oxytocin (synthetic) (P01178 whole entry, looked up): as above
molecule,measurement,setting,value
"O=C1OC2(c3ccc(O)cc3Oc3cc(O)ccc32)c2ccccc21 [fluorescein, sodium fluorescein]",CSF/blood fluorescent,[1]; Ager-/- BCCAO,0.0316% and 0.02179% and 0.01832% and 0.02493%
same,CSF/blood fluorescent,[1]; Ager-/- Sham,0.03456% and 0.01791% and 0.02565%
same,CSF/blood fluorescent,[1]; WT BCCAO,0.02918% and 0.03954% and 0.02602%
same,"CSF/blood fluorescent (relative fluorescence units, CSF value/serum value)","[1]; WT Sham, 200 μl of 6 mg/ml via retro-orbital venous sinus, 60 min",0.03234% and 0.009373% and 0.03651% and 0.03497% and 0.03069% and 0.01619%
"HMGB1: high-mobility group box 1, RAGE ligand (Sigma-Aldrich)",inhibition of oxytocin binding to soluble RAGE by RAGE ligand,human esRAGE,weakly or non-specifically inhibited
oxytocin (from UniProt P01178),Kd,[2],1 nM
same,Kd,oxytocin receptor,100 nM
S100B: RAGE ligand S100B (Sigma-Aldrich),inhibition of oxytocin binding to soluble RAGE by RAGE ligand,human esRAGE,weakly or non-specifically inhibited
arginine-vasopressin,transport by RAGE in the in vitro BBB assay system,[3],did not transport
same,identification in material eluted from immobilised esRAGE (human serum),soluble RAGE,did not identify
amyloid β 1-42,inhibition of oxytocin binding to soluble RAGE by RAGE ligand,human esRAGE,weakly or non-specifically inhibited
"AGEs: glyceraldehyde-derived AGE-BSA, RAGE ligand",inhibition of oxytocin binding to soluble RAGE by RAGE ligand,human esRAGE,weakly or non-specifically inhibited
"[^13C,^15N]oxytocin","[13C,15N]oxytocin in CSF of Ager-/- male mice",[4],undetectable
Oxytocin (synthetic) (from UniProt P01178 20-28) (peptide),Kd,[5],179 nM

# — paper PMC6389896 (Communications Biology, 2019)
